How the values were obtained:
[1] = molecular target: VEGF receptors on bovine aortic endothelial cells; test: cell-based or functional assay

Chain of rPAI-1Δ23, P79335 (P79335 whole entry, looked up, stated change not applied): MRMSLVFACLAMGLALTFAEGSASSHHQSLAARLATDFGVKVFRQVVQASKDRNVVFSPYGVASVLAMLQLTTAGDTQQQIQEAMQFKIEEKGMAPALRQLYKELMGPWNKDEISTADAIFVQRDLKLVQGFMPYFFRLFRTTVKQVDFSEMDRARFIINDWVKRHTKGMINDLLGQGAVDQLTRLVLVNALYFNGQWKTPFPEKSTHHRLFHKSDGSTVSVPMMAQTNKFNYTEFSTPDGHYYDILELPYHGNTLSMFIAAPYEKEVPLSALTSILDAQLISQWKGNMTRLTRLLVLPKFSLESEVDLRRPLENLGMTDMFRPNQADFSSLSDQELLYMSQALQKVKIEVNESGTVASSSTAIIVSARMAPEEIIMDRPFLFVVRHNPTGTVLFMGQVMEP
Chain of rPAI-123, P79335 (P79335 whole entry, looked up): as the sequence (P79335 whole entry, looked up, stated change not applied) above

125I-VEGF (ligand)
apoptosis (Annexin V) in rPAI-123-treated BAEC versus PAEC [1]: 60%

B1: plasminogen (protein)
chain: EPLDDYVNTQGASLFSVTKKQLGAGSIEECAAKCEEDEEFTCRAFQYHSKEQQCVIMAENRKSSIIIRMRDVVLFEKKVYLSECKTGNGKNYRGTMSKTKNGITCQKWSSTSPHRPRFSPATHPSEGLEENYCRNPDNDPQGPWCYTTDPEKRYDYCDILECEEECMHCSGENYDGKISKTMSGLECQAWDSQSPHAHGYIPSKFPNKNLKKNYCRNPDRELRPWCFTTDPNKRWELCDIPRCTTPPPSSGPTYQCLKGTGENYRGNVAVTVSGHTCQHWSAQTPHTHNRTPENFPCKNLDENYCRNPDGKRAPWCHTTNSQVRWEYCKIPSCDSSPVSTEQLAPTAPPELTPVVQDCYHGDGQSYRGTSSTTTTGKKCQSWSSMTPHRHQKTPENYPNAGLTMNYCRNPDADKGPWCFTTDPSVRWEYCNLKKCSGTEASVVAPPPVVLLPDVETPSEEDCMFGNGKGYRGKRATTVTGTPCQDWAAQEPHRHSIFTPETNPRAGLEKNYCRNPDGDVGGPWCYTTNPRKLYDYCDVPQCAAPSFDCGKPQVEPKKCPGRVVGGCVAHPHSWPWQVSLRTRFGMHFCGGTLISPEWVLTAAHCLEKSPRPSSYKVILGAHQEVNLEPHVQEIEVSRLFLEPTRKDIALLKLSSPAVITDKVIPACLPSPNYVVADRTECFITGWGETQGTFGAGLLKEAQLPVIENKVCNRYEFLNGRVQSTELCAGHLAGGTDSCQGDSGGPLVCFEKDKYILQGVTSWGLGCARPNKPGVYVRVSRFVTWIEGVMRNN
plasminogen cleavage (immunoblot probed for mini-plasminogen) (rPAI-123, P79335): a distinct plasminogen cleavage product near 50 kDa in all reactions containing the rPAI-123 protein (3, 15 and 30 nM) | plasminogen cleavage (immunoblot probed for mini-plasminogen) (rPAI-1Δ23, P79335): the rPAI-1?23 protein did not cleave plasminogen, even when increasing concentrations of the recombinant protein were added

From patent publication US20040121955A1
